From US20180179296A1
Values belong to the substance of their own block, whether it stands above or below them.

Experiments:
[1] = molecular target: D3H44 light chain, wild type (Design 12 L2) (humanized); assay: light chain competition assay: heavy chain co-expressed with L1 and L2, SPR read-out of light-chain tags; competitor Design 12 L1
[2] = molecular target: Design 12 L1: D3H44 light chain L89R_F98W (humanized); assay: light chain competition assay: heavy chain co-expressed with L1 and L2, SPR read-out of light-chain tags; competitor Design 12 L2 (WT)
[3] = molecular target: tissue factor extracellular domains (human) (UniProt P13726); assay: SPR (ProteOn XPR36), TF immobilised, heterodimer as analyte, 1:1 model
[4] = molecular target: Design 11 L2: D3H44 light chain S176L (humanized); assay: light chain competition assay: heavy chain co-expressed with L1 and L2, SPR read-out of light-chain tags; competitor Design 11 L1
[5] = molecular target: Design 11 L1: D3H44 light chain V133S (humanized); assay: light chain competition assay: heavy chain co-expressed with L1 and L2, SPR read-out of light-chain tags; competitor Design 11 L2
[6] = molecular target: Design 13 L2: D3H44 light chain V133A_Q160K_T178R (humanized); assay: light chain competition assay: heavy chain co-expressed with L1 and L2, SPR read-out of light-chain tags; competitor Design 13 L1
[7] = molecular target: Design 13 L1: D3H44 light chain Q124E_V133W_Q160E_T180E (humanized); assay: light chain competition assay: heavy chain co-expressed with L1 and L2, SPR read-out of light-chain tags; competitor Design 13 L2
[8] = molecular target: Design 14 L2: D3H44 light chain Q124R_Q160K_T178R (humanized); assay: light chain competition assay: heavy chain co-expressed with L1 and L2, SPR read-out of light-chain tags; competitor Design 14 L1
[9] = molecular target: Design 14 L1: D3H44 light chain Q124E_Q160E_T178D (humanized); assay: light chain competition assay: heavy chain co-expressed with L1 and L2, SPR read-out of light-chain tags; competitor Design 14 L2
[10] = molecular target: Design 15 L2: D3H44 light chain Q160K_T178R (humanized); assay: light chain competition assay: heavy chain co-expressed with L1 and L2, SPR read-out of light-chain tags; competitor Design 15 L1
[11] = molecular target: Design 15 L1: D3H44 light chain Q124E_Q160E_T178D (humanized); assay: light chain competition assay: heavy chain co-expressed with L1 and L2, SPR read-out of light-chain tags; competitor Design 15 L2
[12] = molecular target: Design 26 L2: D3H44 light chain F116A_S131K_L135A (humanized); assay: light chain competition assay: heavy chain co-expressed with L1 and L2, SPR read-out of light-chain tags; competitor Design 26 L1
[13] = molecular target: Design 26 L1: D3H44 light chain L135W (humanized); assay: light chain competition assay: heavy chain co-expressed with L1 and L2, SPR read-out of light-chain tags; competitor Design 26 L2
[14] = molecular target: Design 27 L2: D3H44 light chain F118W_Q124E_V133S_S176A_T178S_T180E (humanized); assay: light chain competition assay: heavy chain co-expressed with L1 and L2, SPR read-out of light-chain tags; competitor Design 27 L1
[15] = molecular target: Design 27 L1: D3H44 light chain F116A_V133G_S176F_T178A (humanized); assay: light chain competition assay: heavy chain co-expressed with L1 and L2, SPR read-out of light-chain tags; competitor Design 27 L2
[16] = molecular target: Design 28 L2: D3H44 light chain F118W_V133S_S176A_T180E (humanized); assay: light chain competition assay: heavy chain co-expressed with L1 and L2, SPR read-out of light-chain tags; competitor Design 28 L1
[17] = molecular target: Design 28 L1: D3H44 light chain F116A_S131K_V133G_S176F_T178A (humanized); assay: light chain competition assay: heavy chain co-expressed with L1 and L2, SPR read-out of light-chain tags; competitor Design 28 L2
[18] = molecular target: Design 29 L2: D3H44 light chain Q124R (humanized); assay: light chain competition assay: heavy chain co-expressed with L1 and L2, SPR read-out of light-chain tags; competitor Design 29 L1
[19] = molecular target: Design 29 L1: D3H44 light chain Q124E_V133D (humanized); assay: light chain competition assay: heavy chain co-expressed with L1 and L2, SPR read-out of light-chain tags; competitor Design 29 L2
[20] = molecular target: Design 30 L2: D3H44 light chain Q160K_T178R (humanized); assay: light chain competition assay: heavy chain co-expressed with L1 and L2, SPR read-out of light-chain tags; competitor Design 30 L1
[21] = molecular target: Design 30 L1: D3H44 light chain Q124E_Q160E_T180E (humanized); assay: light chain competition assay: heavy chain co-expressed with L1 and L2, SPR read-out of light-chain tags; competitor Design 30 L2
[22] = molecular target: Design 31 L2: D3H44 light chain Q38D_F116A_L135A (humanized); assay: light chain competition assay: heavy chain co-expressed with L1 and L2, SPR read-out of light-chain tags; competitor Design 31 L1
[23] = molecular target: Design 31 L1: D3H44 light chain Q38R_L135W (humanized); assay: light chain competition assay: heavy chain co-expressed with L1 and L2, SPR read-out of light-chain tags; competitor Design 31 L2
[24] = molecular target: Design 32 L2: D3H44 light chain Q38E_F98W (humanized); assay: light chain competition assay: heavy chain co-expressed with L1 and L2, SPR read-out of light-chain tags; competitor Design 32 L1
[25] = molecular target: Design 32 L1: D3H44 light chain Q38R (humanized); assay: light chain competition assay: heavy chain co-expressed with L1 and L2, SPR read-out of light-chain tags; competitor Design 32 L2

- H2 Readout [1]: 88%
- H2 Readout [2]: 15%
Substance: D3H44 heavy chain, wild type (Design 12 H2)

- Kd [3]: 0.043 nM
Substance: Design 11 H1-L1 heterodimer (D3H44 heavy S188L_V190Y, light V133S) (Fab)

- H1 Readout [4]: 24%
- H1 Readout [5]: 83%
Substance: Design 11 H1: D3H44 heavy chain S188L_V190Y

- Kd [3]: 0.04 nM
Substance: Design 11 H2-L2 heterodimer (D3H44 heavy F174V_P175S_S188G, light S176L) (Fab)

- H2 Readout [4]: 98%
- H2 Readout [5]: 1%
Substance: Design 11 H2: D3H44 heavy chain F174V_P175S_S188G

- H1 Readout [1]: 10%
- H1 Readout [2]: 99%
Substance: Design 12 H1: D3H44 heavy chain V37E_F100D

- Kd [3]: 0.087 nM
Substance: Design 13 H1-L1 heterodimer (D3H44 heavy L143A_D144G_Q179R, light Q124E_V133W_Q160E_T180E) (Fab)

- H1 Readout [6]: 1%
- H1 Readout [7]: 104%
Substance: Design 13 H1: D3H44 heavy chain L143A_D144G_Q179R

- Kd [3]: 0.086 nM
Substance: Design 13 H2-L2 heterodimer (D3H44 heavy K145T_Q179D_S188F, light V133A_Q160K_T178R) (Fab)

- H2 Readout [6]: 87%
- H2 Readout [7]: 14%
Substance: Design 13 H2: D3H44 heavy chain K145T_Q179D_S188F

- H1 Readout [8]: 1%
- H1 Readout [9]: 84%
Substance: Design 14 H1: D3H44 heavy chain D148G_S181R

- H2 Readout [8]: 74%
- H2 Readout [9]: 2%
Substance: Design 14 H2: D3H44 heavy chain K147E_D148G_Q175D_S183L

- Kd [3]: 0.082 nM
Substance: Design 15 H1-L1 heterodimer (D3H44 heavy D146G_Q175R, light Q124E_Q160E_T178D) (Fab)

- H1 Readout [10]: 1%
- H1 Readout [11]: 93%
Substance: Design 15 H1: D3H44 heavy chain D146G_Q175R

- Kd [3]: 0.071 nM
Substance: Design 15 H2-L2 heterodimer (D3H44 heavy K147T_Q175D_S183L, light Q160K_T178R) (Fab)

- H2 Readout [10]: 83%
- H2 Readout [11]: 24%
Substance: Design 15 H2: D3H44 heavy chain K147T_Q175D_S183L

- H1 Readout [12]: 1%
- H1 Readout [13]: 92%
Substance: Design 26 H1: D3H44 heavy chain A139G_V190A

- H2 Readout [12]: 106%
- H2 Readout [13]: 1%
Substance: Design 26 H2: D3H44 heavy chain A139W_K145Y_Q175E

- H1 Readout [14]: 1%
- H1 Readout [15]: 67%
Substance: Design 27 H1: D3H44 heavy chain A139I_K145T_D146G_Q179E_S188G_V190S

- H2 Readout [14]: 85%
- H2 Readout [15]: 12%
Substance: Design 27 H2: D3H44 heavy chain S186K_S188H_V190G

- H1 Readout [16]: 4%
- H1 Readout [17]: 85%
Substance: Design 28 H1: D3H44 heavy chain A139V_K145L_Q179E_S188G_V190S

- H2 Readout [16]: 94%
- H2 Readout [17]: 1%
Substance: Design 28 H2: D3H44 heavy chain A139W_S186K_S188A

- H1 Readout [18]: 1%
- H1 Readout [19]: 93%
Substance: Design 29 H1: D3H44 heavy chain L143K_D146G

- H2 Readout [18]: 102%
- H2 Readout [19]: 1%
Substance: Design 29 H2: D3H44 heavy chain L143E_K145T

- Kd [3]: 0.024 nM
Substance: Design 30 H1-L1 heterodimer (D3H44 heavy D146G_Q179K, light Q124E_Q160E_T180E) (Fab)

- H1 Readout [20]: 1%
- H1 Readout [21]: 96%
Substance: Design 30 H1: D3H44 heavy chain D146G_Q179K

- Kd [3]: 0.06 nM
Substance: Design 30 H2-L2 heterodimer (D3H44 heavy L143E_K145T, light Q160K_T178R) (Fab)

- H2 Readout [20]: 102%
- H2 Readout [21]: 1%
Substance: Design 30 H2: D3H44 heavy chain L143E_K145T

- Kd [3]: 0.025 nM
Substance: Design 31 H1-L1 heterodimer (D3H44 heavy Q39D_A139G_V190A, light Q38R_L135W) (Fab)

- H1 Readout [22]: 1%
- H1 Readout [23]: 106%
Substance: Design 31 H1: D3H44 heavy chain Q39D_A139G_V190A

- H2 Readout [22]: 78%
- H2 Readout [23]: 1%
Substance: Design 31 H2: D3H44 heavy chain Q39R_A139W

- H1 Readout [24]: 1%
- H1 Readout [25]: 98%
Substance: Design 32 H1: D3H44 heavy chain Q39E

- H2 Readout [24]: 93%
- H2 Readout [25]: 1%
Substance: Design 32 H2: D3H44 heavy chain Q39R

- Kd [3]: 0.052 nM
Substance: Wild-type D3H44 heterodimer (anti-tissue factor Fab, one heavy chain and one light chain)
